Assay in all cases: cAMP activity assay (pCRE β-galactosidase reporter), transfected HEK293T cells
Common to all, as to type: cell-based

One experiment has as its target T1, RXFP1 F50A (Homo sapiens, UniProt Q9HBX9, F72A).
T1 construct: expressed in transfected cells; host or cells: HEK293T
T1 sequence (Q9HBX9 23-757 F72A limits assumed): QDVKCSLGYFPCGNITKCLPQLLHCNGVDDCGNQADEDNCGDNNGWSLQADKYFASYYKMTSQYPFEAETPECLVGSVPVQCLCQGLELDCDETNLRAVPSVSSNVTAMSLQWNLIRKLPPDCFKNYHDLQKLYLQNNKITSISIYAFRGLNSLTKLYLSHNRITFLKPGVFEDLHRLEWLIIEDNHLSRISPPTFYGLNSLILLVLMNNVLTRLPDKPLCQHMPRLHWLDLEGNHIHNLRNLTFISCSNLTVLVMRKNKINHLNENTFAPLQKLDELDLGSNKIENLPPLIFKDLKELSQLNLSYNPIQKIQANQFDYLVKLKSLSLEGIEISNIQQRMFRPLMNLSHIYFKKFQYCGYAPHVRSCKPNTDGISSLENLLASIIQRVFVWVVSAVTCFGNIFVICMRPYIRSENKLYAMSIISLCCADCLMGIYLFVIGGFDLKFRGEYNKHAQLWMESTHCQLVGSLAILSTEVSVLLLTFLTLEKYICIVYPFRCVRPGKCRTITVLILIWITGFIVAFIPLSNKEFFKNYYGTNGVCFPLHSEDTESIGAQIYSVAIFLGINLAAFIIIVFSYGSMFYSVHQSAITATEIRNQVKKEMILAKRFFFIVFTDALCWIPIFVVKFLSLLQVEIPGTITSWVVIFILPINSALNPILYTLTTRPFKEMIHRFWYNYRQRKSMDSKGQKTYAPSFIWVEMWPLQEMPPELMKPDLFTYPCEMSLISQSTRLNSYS
To be noted: construct F50A, ±s.e.m. In outline:
(§1)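 Relaxin-stimulated cells go through overnight storage at −80 °C, two 10-min lysis steps at pH 8.0 with shaking, and chlorophenol red-β-D-galactopyranoside development. Output at 570 nm is scaled against the 5 μM Forskolin maximum.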

The next experiment addresses T2, RXFP1 F50A^ins (Homo sapiens, UniProt Q9HBX9, INS72A).
T2 construct: transiently transfected human embryonic kidney (HEK) 293T cells expressing full-length RXFP1 and mutants; expressed in transfected cells; host or cells: HEK293T
T2 sequence (Q9HBX9 with tags, fused parts or gaps INS72A limits assumed): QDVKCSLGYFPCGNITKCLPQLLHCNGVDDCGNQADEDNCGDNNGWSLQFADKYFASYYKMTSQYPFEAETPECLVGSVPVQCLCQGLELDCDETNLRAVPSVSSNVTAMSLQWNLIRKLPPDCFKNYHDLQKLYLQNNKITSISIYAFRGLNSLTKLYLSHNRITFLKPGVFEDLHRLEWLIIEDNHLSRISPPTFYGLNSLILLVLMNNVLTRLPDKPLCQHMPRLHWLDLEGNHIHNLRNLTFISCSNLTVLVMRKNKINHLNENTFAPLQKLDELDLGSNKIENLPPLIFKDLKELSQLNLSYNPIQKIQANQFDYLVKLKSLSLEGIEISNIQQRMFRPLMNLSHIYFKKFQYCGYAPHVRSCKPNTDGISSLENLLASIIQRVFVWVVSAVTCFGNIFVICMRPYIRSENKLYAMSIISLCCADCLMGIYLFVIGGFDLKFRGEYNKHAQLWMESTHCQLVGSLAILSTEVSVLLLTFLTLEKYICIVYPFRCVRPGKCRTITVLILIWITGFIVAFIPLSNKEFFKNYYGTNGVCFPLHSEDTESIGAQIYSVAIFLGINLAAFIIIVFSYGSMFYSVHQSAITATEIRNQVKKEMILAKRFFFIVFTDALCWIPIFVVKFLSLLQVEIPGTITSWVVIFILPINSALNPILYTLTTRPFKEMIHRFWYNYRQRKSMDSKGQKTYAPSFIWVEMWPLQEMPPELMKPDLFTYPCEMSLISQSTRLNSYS
To be noted: construct F50A^ins, ±s.e.m. In outline:
as §1

In a further experiment the target is T3, RXFP1 (Homo sapiens, UniProt Q9HBX9).
T3 construct: transiently transfected human embryonic kidney (HEK) 293T cells expressing full-length RXFP1 and mutants; expressed in transfected cells; host or cells: HEK293T
T3 sequence (Q9HBX9 1-757): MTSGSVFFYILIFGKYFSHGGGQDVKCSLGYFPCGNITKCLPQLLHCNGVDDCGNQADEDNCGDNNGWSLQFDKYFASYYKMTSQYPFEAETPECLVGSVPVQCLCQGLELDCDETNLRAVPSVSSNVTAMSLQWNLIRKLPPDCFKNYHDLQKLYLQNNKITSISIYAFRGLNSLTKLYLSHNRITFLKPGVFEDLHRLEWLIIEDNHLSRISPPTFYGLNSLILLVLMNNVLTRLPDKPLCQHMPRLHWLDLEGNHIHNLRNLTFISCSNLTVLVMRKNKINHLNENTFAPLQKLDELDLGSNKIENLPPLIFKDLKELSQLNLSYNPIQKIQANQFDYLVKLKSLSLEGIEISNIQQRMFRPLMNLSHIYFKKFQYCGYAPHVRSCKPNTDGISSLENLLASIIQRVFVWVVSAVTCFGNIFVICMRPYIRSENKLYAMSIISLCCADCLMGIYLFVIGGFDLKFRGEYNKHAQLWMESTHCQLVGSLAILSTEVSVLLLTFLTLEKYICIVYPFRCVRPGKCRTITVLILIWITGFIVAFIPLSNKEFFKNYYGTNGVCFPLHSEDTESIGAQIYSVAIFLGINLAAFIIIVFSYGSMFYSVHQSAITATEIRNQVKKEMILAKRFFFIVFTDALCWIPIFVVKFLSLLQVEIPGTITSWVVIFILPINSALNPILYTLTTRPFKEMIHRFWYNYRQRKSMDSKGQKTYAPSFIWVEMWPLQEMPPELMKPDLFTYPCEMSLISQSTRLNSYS
The settings on record: construct RXFP1 (wild type), ±s.e.m. The method, boiled down:
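Receptor signalling is measured as CRE-driven β-galactosidase activity after H2 relaxin exposure, using a colorimetric substrate read at 570 nm. Values are normalised to 5 μM Forskolin, pooled from at least three independent triplicate experiments.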

Setting [1] is: percentage of maximum response to 5 μM Forskolin.

For the substance “H2 relaxin: two-chain 6-kDa peptide hormone structurally related to insulin; recombinant human gene-2 H2 relaxin provided by Corthera”, the “H2 relaxin pEC50” value is 9.45±0.07 (4) with RXFP1 F50A (cAMP reporter), 9.41±0.13 (3) with RXFP1 F50A^ins (cAMP reporter) and 10.97±0.05 (6) with RXFP1 (cAMP reporter). Besides, the “H2 relaxin Emax” value was 91.9±2.1 (4) % in the experiment with RXFP1 F50A (setting [1]), 93.62±5.34 (3) % in the experiment with RXFP1 F50A^ins (setting [1]) and 116.3±4.2 (6) % in the experiment with RXFP1 (setting [1]).

Values taken from PMC4837482, “The complex binding mode of the peptide hormone H2 relaxin to its receptor RXFP1” (Nature Communications, 2016).
